Several values for one entry are separate records, joined by “and”; a condition that tells them apart may be missing. Identical values can stand only once.
How the values were obtained:
[1] = target: PD-L1 on H1975 human lung adenocarcinoma cells (human (on H1975 cells), UniProt Q9NZQ7 19-290); experiment: ELISA
[2] = target: Human PD-L1 mouse Fc fusion protein (human, UniProt Q9NZQ7 19-238); experiment: ELISA
Chain of Human PD-L1 mouse Fc fusion protein (Q9NZQ7 19-238): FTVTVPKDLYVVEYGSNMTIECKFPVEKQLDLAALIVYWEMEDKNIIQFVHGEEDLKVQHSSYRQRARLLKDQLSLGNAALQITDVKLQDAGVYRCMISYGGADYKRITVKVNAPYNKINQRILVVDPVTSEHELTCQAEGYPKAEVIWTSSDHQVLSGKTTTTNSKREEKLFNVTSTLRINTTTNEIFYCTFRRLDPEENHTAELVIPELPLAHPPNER

Chain of PD-L1 on H1975 human lung adenocarcinoma cells (Q9NZQ7 19-290): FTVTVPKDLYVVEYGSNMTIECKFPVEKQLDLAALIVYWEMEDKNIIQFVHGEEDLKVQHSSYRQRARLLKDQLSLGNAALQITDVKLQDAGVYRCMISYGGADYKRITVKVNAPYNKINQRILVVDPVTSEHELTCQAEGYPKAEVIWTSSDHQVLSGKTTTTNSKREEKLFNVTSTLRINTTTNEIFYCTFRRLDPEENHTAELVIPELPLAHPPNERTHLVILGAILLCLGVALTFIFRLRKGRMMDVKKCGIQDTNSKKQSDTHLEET

B1: mutPD-1Ig (Fc fusion, human, UniProt Q15116 21-161, looked up)
chain: PGWFLDSPDRPWNPPTFSPALLVVTEGDNATFTCSFSNTSESFVLNWYRMSPSNQTDKLAAFPEDRSQPGQDCRFRVTQLPNGRDFHMSVVRARRNDSGTYLCSAISLAPYIQIKESLRAELRVTERRAEVPTAHPSPSPR
EC50 [1]: ~0.2 nM and 0.1 nM and 0.13 nM
EC50 [2]: 0.02 nM
